Results from the supplement of paper PMC10201428.
± gives the standard deviation of the averaged measurements.

Assays:
[1] = system: VchCAST RNA-guided transposition machinery (E. coli BL21(DE3) host, lacZ target); assay: relative integration efficiency (T-RL orientation) vs wild-type transposon end (log2 (normalized fold change)); transposon end mutated: right end (5 bp flank + 75 bp right end); higher = more efficient transposition
How it was run: (§1)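 Co-transformation of E. coli BL21(DE3) combined a pUC57 mini-transposon donor, holding barcoded pools of 1549 left-end or 1849 right-end variants, with a T7-driven plasmid encoding a CRISPR array, tniQ-cas8-cas7-cas6 and tnsA-tnsB-tnsC. After plating with 0.1 mM IPTG at 37°C for 18 h, input plasmids and genomic integration junctions were PCR-amplified and Illumina-sequenced across two biological output replicates, with four reference barcodes. Relative integration efficiency is the normalised, log-transformed output/input barcode fold change.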

[2] = system: VchCAST RNA-guided transposition machinery (E. coli BL21(DE3) host, lacZ target); assay: relative integration efficiency (T-LR orientation) vs wild-type transposon end (log2 (normalized fold change)); transposon end mutated: right end (5 bp flank + 75 bp right end); higher = more efficient transposition
How it was run: as §1

Sequence	relative integration efficiency (log2) [1]	relative integration efficiency (log2) [2]
ACATTTGTTGATACAACCATAAAATGATAATTAATAATTATTTATAATCAGCACACCCATAAATTGATAATTATCAACAAACGCCCGGTCGCGGTACTCTGATCATAGTCAGACCAACATTGCTACG	-2.43 ± 0.16	0.238 ± 0.52
ACATTTGTTGATACAACCATAAAATGATAATTAATAATTATTTATAATCAGCACACCCATAAATTGATAATTATCACACCCATAAATTGATATTGCCTCTGATCATAGTCAGACCAACATTGCTACG	-4.17 ± 0.11	-2.77 ± 0.42
ACATTTGTTGATACAACCATAAAATGATAATTAATAATTATTTATAATCAGCACCCATAAATTGATAATTATCAACAAACGCCCGGTCGCGGTACTCTGATCATAGTCAGACCAACATTGCTACGAC	-2.03 ± 0.4	0.752 ± 0.5
ACATTTGTTGATACAACCATAAAATGATAATTAATAATTATTTATAATCAGCACCCATAAATTGATAATTATCACACCCATAAATTGATATTGCCTCTGATCATAGTCAGACCAACATTGCTACGAC	-3.29 ± 0.1	-0.258 ± 0.51
ACATTTGTTGATACAACCATAAAATGATAATTAATAATTATTTATAATCAGCCACCCATAAATTGATAATTATCAACAAACGCCCGGTCGCGGTACTCTGATCATAGTCAGACCAACATTGCTACGA	-1.83 ± 0.4	1.16 ± 0.037
ACATTTGTTGATACAACCATAAAATGATAATTAATAATTATTTATAATCAGCCACCCATAAATTGATAATTATCACACCCATAAATTGATATTGCCTCTGATCATAGTCAGACCAACATTGCTACGA	-3.35 ± 0.33	-0.898 ± 1.2
ACATTTGTTGATACAACCATAAAATGATAATTAATAATTATTTATAATCCACCCATAAATTGATAATTATCAACAAACGCCCGGTCGCGGTACTCTGATCATAGTCAGACCAACATTGCTACGACCC	-2.37 ± 0.16	1.24 ± 0.42
ACATTTGTTGATACAACCATAAAATGATAATTAATAATTATTTATAATCCACCCATAAATTGATAATTATCACACCCATAAATTGATATTGCCTCTGATCATAGTCAGACCAACATTGCTACGACCC	-3.09 ± 0.19	0.382 ± 0.22
ACATTTGTTGATACAACCATAAAATGATAATTAATAATTATTTATACACCCATAAATTGATAATTATCAACAAACGCCCGGTCGCGGTACTCTGATCATAGTCAGACCAACATTGCTACGACCCGTA	-3.12 ± 0.48	0.401 ± 0.042
ACATTTGTTGATACAACCATAAAATGATAATTAATAATTATTTATACACCCATAAATTGATAATTATCACACCCATAAATTGATATTGCCTCTGATCATAGTCAGACCAACATTGCTACGACCCGTA	-3.6 ± 0.11	-0.465 ± 0.37
ACATTTGTTGATACAACCATAAAATGATAATTAATAATTATTTATCACCCATAAATTGATAATTATCAACAAACGCCCGGTCGCGGTACTCTGATCATAGTCAGACCAACATTGCTACGACCCGTAT	-0.654 ± 0.39	2.6 ± 0.053
ACATTTGTTGATACAACCATAAAATGATAATTAATAATTATTTATCACCCATAAATTGATAATTATCACACCCATAAATTGATATTGCCTCTGATCATAGTCAGACCAACATTGCTACGACCCGTAT	-3.21 ± 0.32	-2.04 ± 0.35
ACATTTGTTGATACAACCATAAAATGATAATTAATAATTATTTCACCCATAAATTGATAATTATCAACAAACGCCCGGTCGCGGTACTCTGATCATAGTCAGACCAACATTGCTACGACCCGTATTC	-2.91 ± 0.43	0.365 ± 0.079
ACATTTGTTGATACAACCATAAAATGATAATTAATAATTATTTCACCCATAAATTGATAATTATCACACCCATAAATTGATATTGCCTCTGATCATAGTCAGACCAACATTGCTACGACCCGTATTC	-3.8 ± 0.49	-2.62 ± 1.1
ACATTTGTTGATACAACCATAAAATGATAATTAATAATTCACCCATAAATTGATAATTATCAACAAACGCCCGGTCGCGGTACTCTGATCATAGTCAGACCAACATTGCTACGACCCGTATTCGCAC	-1.96 ± 0.21	1.02 ± 0.13
